This experiment deals with T1, ATG7 W243A (human, UniProt O95352 1-703, W243A).
T1 sequence (looked up): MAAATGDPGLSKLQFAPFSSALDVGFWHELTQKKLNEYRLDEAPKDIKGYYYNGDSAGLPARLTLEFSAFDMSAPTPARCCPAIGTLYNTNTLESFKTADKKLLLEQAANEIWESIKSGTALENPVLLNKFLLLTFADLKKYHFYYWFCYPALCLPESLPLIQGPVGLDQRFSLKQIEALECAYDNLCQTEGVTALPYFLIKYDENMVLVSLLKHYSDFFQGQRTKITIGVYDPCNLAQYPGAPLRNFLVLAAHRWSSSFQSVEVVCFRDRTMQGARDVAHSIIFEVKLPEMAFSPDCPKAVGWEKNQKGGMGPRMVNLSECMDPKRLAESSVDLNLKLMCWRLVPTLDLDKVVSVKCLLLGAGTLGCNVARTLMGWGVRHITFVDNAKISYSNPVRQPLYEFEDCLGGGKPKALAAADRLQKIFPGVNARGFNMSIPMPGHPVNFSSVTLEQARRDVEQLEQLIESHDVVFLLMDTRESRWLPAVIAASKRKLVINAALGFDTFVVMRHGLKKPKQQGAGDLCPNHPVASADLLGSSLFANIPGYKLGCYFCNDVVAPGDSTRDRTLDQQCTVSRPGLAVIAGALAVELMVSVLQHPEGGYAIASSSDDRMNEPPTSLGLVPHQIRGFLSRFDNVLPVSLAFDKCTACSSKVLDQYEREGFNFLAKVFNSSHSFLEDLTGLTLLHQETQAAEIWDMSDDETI
The experiment in a line: pull-down.

B1: GST-ATG3 (enzyme)
chain: not shown
Turning to B1, the binding result is “binds”.
